This series deals with the molecule itself. As to the kind of experiment: cryo-EM structure; α and β mixed 1:1.5 (α:β) with 1 mM dATP and 1 mM CDP on ice in 50 mM HEPES pH 7.6, 15 mM MgCl2, 1 mM EDTA; chameleon 54 ms dispense-to-plunge, 6 mg/mL protein (4.3 Å); also Vitrobot grid, 0.5 mg/mL (5.6 Å); dATP-inactivating conditions.

B1: Neisseria gonorrhoeae class Ia ribonucleotide reductase NrdB (β) subunit, hydroxyurea-inactivated (met-β2) (enzyme, UniProt A0ACH0F974 1-377, looked up)
chain: MSYSTFPKTKNDALKEPMFFGQPVNVARYDQQKYEVFEKLIEKQLSFFWRPEEIDVSRDRIDYANLPEHEKHIFISNLKYQTLLDSIQGRSPNVALLPLVSIPELETWVETWSFSETIHSRSYTHIIRNIVNDPSVVFDDIVENEYITARAEDIACYYDDLIEYTQYYNLLGEGVHNVGGKPVTVSLRGLKKKLYLCLMCVNVLEAIRFYVSFACSFAFAERELMEGNAKIIKLIARDEALHLTGTQHMLNLMRSGVDDPEMAEIAAELQDECFQLFKKAAEQEKEWAAYLFKDGSMIGLNKEILSQYVEYITNLRMQAVGLPAGFEGANQNPIPWINAWLSSDNVQVAPQEVEISSYLIGQIDSEVNTDDLGDFEL
notes: N. gonorrhoeae class Ia RNR radical-generating subunit NrdB (β); 377 residues as printed (model holds four residues of the histidine tag, residues 1-346 and 374-376 of 377); expected MW 43253 Da; met-β2: diiron cluster reconstituted (1.8 +/- 0.3 iron per monomer), tyrosyl radical quenched with hydroxyurea; also called NgRNR β; His6-TEV-NgRNR β; source: E. coli T7 Express, pET30a(+), purified …
As to B1, the binding result is “binds”.

Values taken from publication PMC8994553, “Effects of chameleon dispense-to-plunge speed on particle concentration, complex formation, and final resolution: A case study using the Neisseria gonorrhoeae ribonucleotide reductase inactive complex” (Journal of structural biology, 2021).
